Reference: article PMC11309785, “Vaccine priming of rare HIV broadly neutralizing antibody precursors in non-human primates” (Science (New York, N.Y.), 2024)

B1: RM_N332_36 Fab (Fab, V domains shown)
VH: QVTLKESGPALVKPTQTLTLTCTFSGFSLSTNYMGVDWIRQPPGKALEWLARIYWNDDKYYSTSLKSRLTISKDTSKNQVVLTMSNMDPVDTATYYCARVKLSVWGVLQFFEWSDYGLDSWGQGVVVTVSS
VL: SYVLTQPPSVSVSPGQTARITCGADNIGSQSVHWYQQKSPQAPVLVISADTERPSGIPERFSGSNSGNTATLTISGVEAGDEADYYCQVWDSDSKYALFGGGTRLTVL
notes: human Fab heavy chain constant region from the vector pFabCW; human lambda constant region from the vector pCW-CLig-hL2; Macaque variable regions on human constant regions; The deposited model may hold the Fv only; also called BG18 type I Fab with D3-41 in alternate reading frame; source: FreeStyle 293F or ExpiCHO cells, purified (CaptureSelect CH1-XL)
B2: RM_N332_32 Fab (Fab, V domains shown)
VH: QLQLQESGPGLVKPSETLSLTCAVSGGSISDYCWNWIRQPPGKGLEWIGYIGGSSGSTYYNPSLKGRVTISADTSENRFSLKLSSVTAADTAVYYCARSPITVFGVVIFDEYTTGNLDLWGPGTPISISS
VL: DIQMTQSPSSLSASVGDKVTITCHASQDISSWLAWYQQKPGKAPKPLIYYASSLQSGVPSRFSGSGSGTDYTLTITSLQPEDFATYYCQQYDDLPFTFGPGTKLDIK
notes: human Fab heavy chain constant region from the vector pFabCW; human kappa constant region from the vector pCW-CLig-hk; Macaque variable regions on human constant regions; The deposited model may hold the Fv only; also called BG18 type I Fab with kappa light chain; source: FreeStyle 293F or ExpiCHO cells, purified (CaptureSelect CH1-XL)

Target: T1, N332-GT5 trimer, C-terminal His-tagged (captured ligand of the SPR) (HIV-1 isolate BG505 (N332-GT5 …, stabilised))
T1 construct: HIV-1 envelope (Env) of isolate BG505, gp120 part of the germline-targeting trimer N332-GT5, co-expressed with furin; S18, coordinates in PDB 8T4K; HIV-1 envelope (Env) of isolate BG505, gp41 ectodomain part of the trimer N332-GT5; MD65 = MD39 stabilising mutations plus V505T, V513A, V518S, L520D; also called N332-GT5 WT; source: 293F cells, co-transfected with furin, purified (HIS-TRAP, SEC); …
Experiment: SPR; ProteOn XPR36, HC30M XanTec chip; His-tagged trimer (300 to 400 RU, 1 ug/mL) captured by immobilised rabbit anti-His-tag pAb, Fab flowed as analyte at 30 ul/min for 3 min, 5 min dissociation; 1x HBS-EP+ pH 7.4 with BSA 1 mg/ml; equilibrium or kinetic (Langmuir) fits; highest concentration 2x10^-5 M, approximate upper affinity limit 1.6x10^-11 M
Conditions: both partners purified

Binder | Kd [nM]
B1 | 0.038
B2 | 0.081
